Results on 9 substances are retold here after patent US20200024330A1.

In general, IC50 refers to the midpoint of a concentration-inhibition curve. Read a high IC50 as weaker potency in that assay.

Holding throughout (experiment): cell-based or functional assay
The target of experiment [1] is HIV-1 Env of pseudovirus TRO.11 (Acute), clade B (HIV-1).
For experiment [2], the target named is HIV-1 Env of pseudovirus QH0692.42 (Acute), clade B (HIV-1).
Experiment [3] addresses HIV-1 NL43 envelope protein (Env) on pseudovirus (HIV-1).
Experiment [4] has as its target HIV-1 MGRM-A-011 envelope glycoprotein (Env) (HIV-1).
Experiment [5] deals with HIV-1 MGRM-A-003 envelope glycoprotein (Env) (HIV-1).
The target in experiment [6] is HIV-1 MGRM-F1-006 Env (pseudovirus) (HIV-1).
The target of experiment [7] is HIV-1 Env of isolate MGRM-AE-001 (HIV-1).
The target of experiment [8] is HIV-1 Env of isolate MGRM-D-011 (clade D) (HIV-1).
The target in experiment [9] is HIV-1 MGRM-F1-020 Env (pseudovirus) (HIV-1).
Experiment [10] addresses HIV-1 Env of pseudovirus MGRM-Chronic-B-002, clade B (HIV-1).
The target in experiment [11] is HIV-1 MGRM-C-006 Env (HIV-1).
Experiment [12] addresses HIV-1 92RW024 envelope glycoprotein (Env) on pseudovirus (HIV-1).
The target of experiment [13] is HIV-1 Env of isolate MGRM-D-004 (clade D) (HIV-1).
Experiment [14] addresses HIV-1 Env of pseudovirus MGRM-Chronic-B-008, clade B (HIV-1).
For experiment [15], the target named is HIV-1 98CN006 envelope glycoprotein (Env) on pseudovirus (HIV-1).
The target in experiment [16] is HIV-1 Env of pseudovirus APV_17, clade B (HIV-1).
In experiment [17] the target is HIV-1 Env of pseudovirus VLGCB3, clade B (HIV-1).
The target in experiment [18] is HIV-1 94UG114 envelope glycoprotein (Env) on pseudovirus (HIV-1).
The target in experiment [19] is HIV-1 MGRM-A-010 envelope glycoprotein (Env) (HIV-1).
For experiment [20], the target named is HIV-1 94UG103 envelope glycoprotein (Env) (HIV-1).
The target of experiment [21] is HIV-1 Env of isolate MGRM-D-018 (clade D) (HIV-1).
The target in experiment [22] is HIV-1 JR-CSF Env E172A (HIV-1 (isolate JR-CSF)) (UniProt P20871).
In experiment [23] the target is HIV-1 Env of isolate MGRM-D-022 (HIV-1).
Experiment [24] deals with HIV-1 Env of isolate MGRM-A-007 (clade A), on pseudovirus (HIV-1).
Experiment [25] deals with HIV-1 Env of isolate MGRM-C-028 (HIV-1).
Experiment [26] deals with HIV-1 Env of isolate VLGCA1 (clade A), on pseudovirus (HIV-1).
Experiment [27] deals with HIV-1 Env of isolate 92UG024 (HIV-1).
The target of experiment [28] is HIV-1 Env of isolate 93WR029 (HIV-1).
Experiment [29] deals with HIV-1 Env of isolate APV-13 (pseudovirus) (HIV-1 isolate APV-13, subtype B).
Experiment [30] deals with HIV-1 JR-CSF Env V182A (HIV-1 (isolate JR-CSF)) (UniProt P20871).
Experiment [31] deals with HIV-1 Env of isolate MGRM-D-012 (HIV-1).
Experiment [32] has as its target HIV-1 Env of isolate 92WR021 (HIV-1).
Experiment [33] addresses HIV-1 Env of isolate MGRM-D-021 (HIV-1).
Experiment [34] has as its target HIV-1 Env of isolate 98IN022 (HIV-1).
For experiment [35], the target named is HIV-1 Env of isolate MGRM-F1-017 (subtype F), on pseudovirus (HIV-1).
Experiment [36] deals with HIV-1 MGRM-A-010 envelope glycoprotein (Env) on pseudovirus (HIV-1).

Sequence of 5329_C19 (PGT-136) (antibody) (VH): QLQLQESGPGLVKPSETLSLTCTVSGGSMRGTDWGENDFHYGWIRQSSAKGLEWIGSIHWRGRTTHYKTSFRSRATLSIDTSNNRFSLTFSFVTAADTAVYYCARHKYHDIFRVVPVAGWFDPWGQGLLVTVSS
Sequence of 5329_C19 (PGT-136) (antibody) (VL): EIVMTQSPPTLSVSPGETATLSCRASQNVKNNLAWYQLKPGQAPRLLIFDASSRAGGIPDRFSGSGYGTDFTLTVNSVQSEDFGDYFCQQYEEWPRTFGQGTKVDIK
Sequence of 5345_I01 (PGT-137) (antibody) (VH): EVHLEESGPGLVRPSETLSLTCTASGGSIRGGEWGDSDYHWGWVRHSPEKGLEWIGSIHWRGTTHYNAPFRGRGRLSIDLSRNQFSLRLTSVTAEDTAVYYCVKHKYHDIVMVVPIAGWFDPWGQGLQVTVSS
Sequence of 5345_I01 (PGT-137) (antibody) (VL): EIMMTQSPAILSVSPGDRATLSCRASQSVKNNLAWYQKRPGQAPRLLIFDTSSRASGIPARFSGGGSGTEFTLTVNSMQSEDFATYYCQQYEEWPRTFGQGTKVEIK

Consider 2F5 (antibody), for which the IC50 (µg/ml), pseudovirus neutralization in experiment [1] was above 50 µg/mL; in [2], 5.42 µg/mL; in experiment [4], above 50 µg/mL; in experiment [5], 7.37 µg/mL; in [6], 1.1 µg/mL; in experiment [7], 0.29 µg/mL. Also, the IC50 (µg/ml), pseudovirus neutralization in experiment [8] was above 50 µg/mL; in experiment [9] it was 0.59 µg/mL; in experiment [10], 1.25 µg/mL; in experiment [12], 8.22 µg/mL; in experiment [13], 2.3 µg/mL; in experiment [14], above 50 µg/mL. Also, the IC50 (µg/ml), pseudovirus neutralization was above 50 µg/mL in experiment [15]; 4.61 µg/mL in experiment [16]; above 50 µg/mL in [17]; above 50 µg/mL in [18]; 20.8 µg/mL in experiment [19]; 1.92 µg/mL in [20]. Moreover, the IC50 (µg/ml), pseudovirus neutralization in experiment [21] was determined as 4.05 µg/mL. Moreover, in experiment [3], the neutralization IC50 was 2.41 µg/mL. For the same substance, the IC50 in [11] was above 50 µg/mL.

In the case of 2G12 (antibody), the IC50 (µg/ml), pseudovirus neutralization in experiment [1] was 0.29 µg/mL; in [2], 4.39 µg/mL; in experiment [4], above 50 µg/mL; in experiment [5], above 50 µg/mL; in experiment [6] it was above 50 µg/mL; in [7], above 50 µg/mL. The IC50 (µg/ml), pseudovirus neutralization was 1.5 µg/mL in experiment [8]; above 50 µg/mL in experiment [9]; above 50 µg/mL in [10]; above 50 µg/mL in experiment [12]; above 50 µg/mL in experiment [13]; 0.55 µg/mL in experiment [14]. For the same substance, the IC50 (µg/ml), pseudovirus neutralization in experiment [15] is above 50 µg/mL; in [16], above 50 µg/mL; in experiment [17], 7.9 µg/mL; in [18], 13.9 µg/mL; in experiment [19], 17 µg/mL; in [20], 48.1 µg/mL. In [21], this substance registered an IC50 (µg/ml), pseudovirus neutralization of 0.12 µg/mL. In experiment [3], the neutralization IC50 is 0.75 µg/mL. For the same substance, the IC50 in [11] is above 50 µg/mL.

As to 4E10 (antibody), the IC50 (µg/ml), pseudovirus neutralization in experiment [1] is 1.39 µg/mL; in [2], 12.7 µg/mL; in experiment [4] it was 2.88 µg/mL; in [5], 5.94 µg/mL; in [6], 1.01 µg/mL; in experiment [7], 0.85 µg/mL. Further, the IC50 (µg/ml), pseudovirus neutralization in [8] turned out to be 0.91 µg/mL; in experiment [9], 0.66 µg/mL; in experiment [10], 2.19 µg/mL; in [12], 8.88 µg/mL; in experiment [13], 1.58 µg/mL; in [14], 16.7 µg/mL. Besides, the IC50 (µg/ml), pseudovirus neutralization in [15] came out at 1.91 µg/mL; in experiment [16] it was 10.5 µg/mL; in experiment [17] it was 5.76 µg/mL; in experiment [18], 9.72 µg/mL; in experiment [19] it was 14.4 µg/mL; in [20], 4.97 µg/mL. This substance also returned an IC50 (µg/ml), pseudovirus neutralization in experiment [21] of 3.9 µg/mL. The same substance had a neutralization IC50 in [3] of 4.95 µg/mL. Also, in experiment [11], the IC50 was determined as 4.94 µg/mL.

As to 5114_A19 (PGT-128) (antibody), the results for the Fold IC50 increase relative to wild-type in [22] and in experiment [30] were 2.5 fold and 1.2 fold, respectively. For the same substance, the 50% inhibitory concentration (IC50) in [23] is above 50 µg/mL; in experiment [25], 14.4 µg/mL; in [27], above 50 µg/mL; in experiment [31] it was above 50 µg/mL; in experiment [33], 0.014 µg/mL; in experiment [34], 0.014 µg/mL. Also, the IC50, single-round pseudovirus neutralization is above 50 µg/mL in [24] and 0.838 µg/mL in [26]. Moreover, the neutralization IC50 was above 50 µg/mL in [28] and 0.005 µg/mL in [32]. In experiment [29], this substance displayed an IC50 (µg/mL) neutralization of 0.008 µg/mL. For the same substance, in experiment [35], the IC50, pseudovirus neutralization turned out to be 11.7 µg/mL.

For 5136_H01 (PGT-131) (antibody), the IC50 in experiment [23] was above 50 µg/mL; in experiment [25], above 50 µg/mL; in experiment [27], above 50 µg/mL; in [31], above 50 µg/mL; in [33], 0.106 µg/mL; in experiment [34], above 50 µg/mL. Further, the IC50, single-round pseudovirus neutralization in experiment [24] and in [26] was above 50 µg/mL in each case. The figures for the neutralization IC50 in [28] and in [32] were above 50 µg/mL and 0.012 µg/mL, respectively. This substance also yielded an IC50 (µg/mL) neutralization in experiment [29] of 0.189 µg/mL. In experiment [30], this substance had a Fold IC50 increase relative to wild-type of 1.1 fold. This substance also had an IC50, pseudovirus neutralization in experiment [35] above 50 µg/mL.

In the case of 5147_N06 (PGT-130) (antibody), the results for the Fold IC50 increase relative to wild-type in experiment [22] and in experiment [30] were 1.4 fold and 1.2 fold, respectively. Also, the 50% inhibitory concentration (IC50) was above 50 µg/mL in experiment [23]; above 50 µg/mL in experiment [25]; above 50 µg/mL in [27]; above 50 µg/mL in experiment [31]; 0.156 µg/mL in [33]; above 50 µg/mL in experiment [34]. The IC50, single-round pseudovirus neutralization in experiment [24] and in experiment [26] was above 50 µg/mL each time. In addition, the IC50 (ug/ml), neutralizing activity in experiment [36] turned out to be 0.0054 µg/mL. The neutralization IC50 is 34.3 µg/mL in experiment [28], 0.004 µg/mL in [32] and 0.0378 µg/mL in experiment [21]. In [29], this substance yielded an IC50 (µg/mL) neutralization of 0.052 µg/mL. Moreover, the IC50, pseudovirus neutralization in experiment [35] is above 50 µg/mL. In [21], this substance gave a neutralization IC80 of 0.289 µg/mL. Also, the neutralization IC90 in experiment [21] was found to be 2.31 µg/mL. In addition, in [21], the neutralization IC95 is above 10 µg/mL.

For the substance 5329_C19 (PGT-136) (antibody), the half-inhibitory concentration (IC50) in experiment [23] is above 50 µg/mL; in [25], 33.7 µg/mL; in experiment [27], 0.052 µg/mL; in experiment [31], above 50 µg/mL; in experiment [33], above 50 µg/mL; in experiment [34], 13.6 µg/mL. The IC50, single-round pseudovirus neutralization in experiment [24] and in experiment [26] was above 50 µg/mL each time. The neutralization IC50 in [28] and in experiment [32] was above 50 µg/mL each time. The IC50 (µg/mL) neutralization in experiment [29] was above 50 µg/mL. The substance further yielded an IC50, pseudovirus neutralization in experiment [35] above 50 µg/mL.

As for 5343_B08 (PGT-135) (antibody), the Fold IC50 increase relative to wild-type was 1.3 fold in experiment [22] and 1.5 fold in experiment [30]. Besides, the IC50 in experiment [23] is above 50 µg/mL; in experiment [25], 1.47 µg/mL; in [27], 0.01 µg/mL; in experiment [31] it was above 50 µg/mL; in experiment [33], above 50 µg/mL; in [34] it was 0.014 µg/mL. Besides, the IC50, single-round pseudovirus neutralization in experiment [24] and in experiment [26] was above 50 µg/mL each time. For the same substance, the neutralization IC50 in [28] and in experiment [32] was above 50 µg/mL throughout. In addition, the IC50 (µg/mL) neutralization in [29] was found to be 0.716 µg/mL. The substance also returned an IC50, pseudovirus neutralization in [35] of 7.79 µg/mL.

For the substance 5345_I01 (PGT-137) (antibody), the IC50 was above 50 µg/mL in experiment [23]; above 50 µg/mL in [25]; 0.106 µg/mL in experiment [27]; above 50 µg/mL in experiment [31]; above 50 µg/mL in experiment [33]; 0.408 µg/mL in [34]. Moreover, the IC50, single-round pseudovirus neutralization in [24] and in experiment [26] was above 50 µg/mL each time. In addition, the neutralization IC50 in experiment [28] is above 50 µg/mL; in experiment [32], 3.52 µg/mL. For the same substance, the IC50 (µg/mL) neutralization in experiment [29] is above 50 µg/mL. In addition, the IC50, pseudovirus neutralization in experiment [35] was above 50 µg/mL.
